Measurements taken from patent US7732178B2, “Laccase enzymes and their uses” (AB Enzymes Oy, priority 2004, dated 2010).
Values joined by “and” are separate entries in the source; they are usually repeats but may differ in a detail not shown here. Equal entries are not always repeated.

Tests used:
[1] = test system: wild type Chaetomium (CtL) laccase; assay type: biochemical, Chaetomium thermophilum; conditions: pH 5
[2] = Stain removal, grass soiling; parameters: key to Grass L* / Grass a* / Grass b*: CIE L*a*b* color coordinates from reflectance; conditions: for Grass L* / Grass a* / Grass b*: 60 min, pH 6
Protocol: (§1) Laccases CtLcc1, TaLcc2, TaLcc4 and Denilite II Base (Example 7) were tested for their ability to remove stains. The following artificially soiled test cloths were used: grass soiling (Art.164, EMPA Testmaterialen, Germany), tea soiling (Art. 167, EMPA Testmaterialen, Germany). The fabric was cut in 5.8×5.8 cm swatches. Laccase treatments were performed in LP-2 Launder Ometer as follows. About 5 g of soiled fabrics were loaded into 1.2 liter containers containing 150 ml Mc Ilvaine's citrate phosphate buffer pH 6 and the containers were temperated. Enzyme with or without the mediator (methyl syringate, DeniLite II Assist, Novozymes) was added as laccase activity units (Example 7). Enzyme was dosed 200 nkat/g and the mediator 10 mg/g on the weight of fabric, except at 40° C. dosages of 20 nkat/g and 2 mg/g were also used. The Launder Ometer was run at 40, 50 or 60° C. and pH 6 for 60 min. After that the swatches were carefully rinsed under running water and in shake flasks containing warm water and dried in the air.
(§2) The stain removal effect was evaluated by measuring the colour as reflectance values using L*a*b* color space coordinates (Example 7). The colour of the swatches was measured before and after the laccase treatment.

[3] = Specific activity towards di-methoxy-phenol (DMP); assay type: biochemical; conditions: 25 mM MES buffer, pH 5.5
Protocol: (§3) Specific activities of the purified T. arenaria and C. thermophilum laccases were determined towards different laccase substrates.

[4] = Denim bleaching at different temperatures; parameters: key to After laccase treatment L* / After laccase treatment b* / Increase of L*: CIE L*a*b* colour coordinates (illuminant D65), reflectance; conditions: face side of denim; 30 min, 40° C., pH 6; enzyme 200 nkat/g, mediator 10 mg/g
Protocol: (§4) Lee Cooper jeans (MASI Company Oy, Finland) that were desized and treated with neutral ECOSTONE® cellulase were used as test material. Laccase treatments were performed in LP-2 Launder Ometer as follows. About 10 g of denim swatches (15×14 cm) were loaded into 1.2 liter containers containing 200 ml Mc Ilvaine's citrate phosphate buffer pH 5, 6 or 7 and the containers were temperated. Enzyme with or without the mediator (methyl syringate, DeniLite II Assist, Novozymes) was added as laccase activity units. Enzyme was dosed 200 nkat/g and the mediator 10 mg/g on the weight of fabric. […] The Launder Ometer was run at 50° C. for 30 min and after that the temperature in Launder was raised to 80° C. for 10 min. The swatches were carefully rinsed with warm water, dried half-dry in a tumbler and after that air dried.
(§5) The bleaching effect was evaluated by measuring the colour as reflectance values with the Minolta Chromameter CM 1000 (Minolta Co.) using L*a*b* color space coordinates (illuminant D65). The colour from both sides of the swatches was measured before and after the laccase treatment. Each measurement was the average of several measurements.
The test system and denim were as in Example 7, except that the conditions during the laccase and mediator treatment in Launder were 30 min, pH 6 and temperature 30-70° C. (DeniLite II Base also at 80° C.) and the enzyme was inactivated by alkaline treatment instead of raising the temperature in Launder as follows. After removing swatches from the containers they were soaked in warm water containing NaOH (pH 11.5) for 10 min and rinsed carefully with warm water. The swatches were dried half-dry in a tumbler and after that air dried. The bleaching effect was evaluated by measuring the colour as reflectance values as in Example 7.

[5] = Stain removal, tea soiling; parameters: key to Tea L* / Tea a* / Tea b*: CIE L*a*b* color coordinates from reflectance; conditions: 60 min, pH 6
Protocol: as §1, §2

[6] = Specific activity towards ABTS; assay type: biochemical; conditions: 25 mM succinate buffer pH 4.5, 25° C.
Protocol: The activity assay was carried out in accordance with the method developed by Niku-Paavola et al. (1988). The sample was diluted with 0.025 M succinate buffer, pH 4.5. […] The activity is expressed as nano katals.
as §3

[7] = Denim bleaching at different pH values; parameters: key to After laccase treatment L* / After laccase treatment b* / Increase of L*: CIE L*a*b* colour coordinates (illuminant D65), Minolta reflectance; conditions: face side of denim, 30 min, 50° C.
Protocol: as §4, §5

[8] = Specific activity towards guaiacol; assay type: biochemical; conditions: 25 mM MES buffer, pH 5.5
Protocol: as §3

[9] = Isoelectric focusing (pI); assay type: physicochemical; conditions: pH range 3-9
Protocol: Molecular weight of the T. arenaria and C. thermophilum laccases were determined on SDS-PAGE according to Laemmli (1970) The gels used in the SDS-PAGE analysis were ready-made 12% Tris HCl gels (BioRad). Protein bands were visualized by staining with Coomassie Brilliant Blue (R 350; Pharmacia) and compared with molecular weight markers (Prestained Protein Marker Broad Range #7708S; New England BioLabs, Beverly, Mass.). The molecular weight of the both laccases was approximately 80 kDa. The isoelectric point of the laccases was determined with isoelectric focusing within the pH range of 3-9 (Pharmalyte IEF, Pharmacia) on a LKB 2117 Multiphor II Electrophoresis System (LKB Pharmacia, Bromma, Sweden) according to the manufacturer's instructions.
The purified recombinant Thielavia and Chaetomium laccases were characterized in terms of pH optimum, thermal stability, and pI as described in Example 2. The molecular weight was determined by MALDI-TOF mass spectrometry on a Ultraflex™ time-of-flight instrument (BrukerDaltonics, Germany) as previously described (Palonen et al., 2003). The redox-potentials of the T1 coppers of for CtLcc, and TaLcc2 laccases were determined by photometric copper titration in 0.1 M KH2PO4 (pH 6.0) as described by Xu et al. (1996) using the redox titrant couple K3Fe(CN)6/K4Fe(CN)6. The redox potential of TaLcc1 was determined with a combined Pt—AgCl/KCl microelectrode at pH 5.0 according to Sigoillot et al (2004). The characterization results are collected to Table 14.

[10] = Specific activity towards syringaldazine; assay type: biochemical; conditions: 25 mM MES buffer, pH 5.5
Protocol: as §3

[11] = 40° C., enzyme 20 nkat/g + mediator 2 mg/g (Mediator only: 0 nkat/g)
[12] = 40° C., enzyme 200 nkat/g + mediator 10 mg/g (Mediator only: 0 nkat/g)
[13] = 40° C., enzyme 200 nkat/g, mediator 0 mg/g
[14] = 50° C., enzyme 200 nkat/g + mediator 10 mg/g (Mediator only: 0 nkat/g)
[15] = pH 5, enzyme 200 nkat/g without the mediator, or mediator 10 mg/g alone
[16] = pH 5, enzyme 200 nkat/g, mediator 10 mg/g
[17] = pH 6, enzyme 200 nkat/g without the mediator, or mediator 10 mg/g alone
[18] = pH 6, enzyme 200 nkat/g, mediator 10 mg/g
[19] = pH 7, enzyme 200 nkat/g without the mediator, or mediator 10 mg/g alone
[20] = pH 7, enzyme 200 nkat/g, mediator 10 mg/g

## [F-].[Na+] [NaF]
[1]
  Inhibition (%) CtL: 40% and 70%

B1: TaLcc4: Thielavia arenaria ALKO 4197 laccase, SEQ ID NO: 45, produced in Trichoderma reesei (protein)
chain: MISRLLFTSSFTATLASALPGLLYAPHSSALLARSSCSGNTASTRSQWCDYSIDTDYTTEPVDTGVTREYWLELTDVTVSPDGVSRSAMAVNGSIPGPTIFADWGDTVVVHVTNSLSTSLNGTSIHWHGIRQNYTNQNDGVASITQCPLAVGESTTYTWKATQYGSSWYHSHFSLQAWEGVFGGIIINGPSTANYDEDLGMLFLNDWDHQTVDELYSSAETSGPPTLANGLINGTNVYGEDGDSSQTGTRLAVSFTSGTSYRMRLVNAAVDTHWKFSIGNHTMTVMAADLVPIEPYETTVLTIGMGQRYDIVVTADQADVADNFWMRAIPQSACSDNDSADNIRGIVYYGDSPGTPSTTGYDFEDACDDETANITPYISKTVSSAEWNDLETASVSRNSAGLFKWYLNSTTMLVDWAKPTLEMVTDNVTEYDSDDAIIELNEANQWVYMVVQTTLQVPHPIHLHGHDFFILAQGSGTYDSSTVTLKTDNPPRRDTAMLPSQGYLVMAWETDNPGVWLMHCHIGWHTSEGFALQFIERKSEIASIVSTSTMKDICTKWEEFQEEYSIEQEDSGV
modifications: Thielavia arenaria ALKO4197; (1)..(573) Deduced amino acid sequence of Thielavia arenaria ALKO4197 TaLcc4
[2]; 50° C.
  greenness reduced (grass): ca. 2 units
[2]; [11]
  Grass L*: 78.53
  Grass a*: −6.07
  Grass b*: 19.33
[2]; [12]
  Grass L*: 78.94
  Grass a*: −3.77
  Grass b*: 16.77
[2]; [13]
  Grass L*: 79.84
  Grass a*: −4.98
  Grass b*: 17.62
[2]; [14]
  Grass L*: 78.62
  Grass a*: −4.00
  Grass b*: 17.16
[3]
  Specific activity on DMP: 110 nkat/mg
[4]
  After laccase treatment L*: 29.23
  After laccase treatment b*: −18.44
  Increase of L*: 0.12
[5]; [11]
  Tea L*: 75.09
  Tea a*: 5.73
  Tea b*: 22.08
[5]; [12]
  Tea L*: 74.56
  Tea a*: 5.58
  Tea b*: 23.55
[5]; [13]
  Tea L*: 76.74
  Tea a*: 5.05
  Tea b*: 21.67
[5]; [14]
  Tea L*: 75.13
  Tea a*: 5.19
  Tea b*: 22.44
[6]
  Specific activity on ABTS: 1000 nkat/mg
[7]; [15]
  After laccase treatment L*: 29.40
  After laccase treatment b*: −18.70
  Increase of L*: −0.04
[7]; [16]
  After laccase treatment L*: 29.17
  After laccase treatment b*: −18.47
  Increase of L*: 1.01
[7]; [17]
  After laccase treatment L*: 27.68
  After laccase treatment b*: −18.76
  Increase of L*: 0.24
[7]; [18]
  After laccase treatment L*: 29.55
  After laccase treatment b*: −18.11
  Increase of L*: 1.35
[7]; [19]
  After laccase treatment L*: 29.29
  After laccase treatment b*: −18.89
  Increase of L*: 0.50
[7]; [20]
  After laccase treatment L*: 28.31
  After laccase treatment b*: −18.33
  Increase of L*: 0.47
[8]
  Specific activity on guaiacol: 5 nkat/mg
[9]
  pI: 3.0
[10]
  Specific activity on syringaldazin: 52 nkat/mg
